Measurements reported in US20200199241A1 (Chugai, published 2020).
Positions count from the first letter of the chain named. Numbers in names are those of the source.

T1: human FcγRIIa(R) (human, UniProt P12318 36-217)
T1 construct: also called FcgRIIaR; hFcgRIIa(R)
T1 chain: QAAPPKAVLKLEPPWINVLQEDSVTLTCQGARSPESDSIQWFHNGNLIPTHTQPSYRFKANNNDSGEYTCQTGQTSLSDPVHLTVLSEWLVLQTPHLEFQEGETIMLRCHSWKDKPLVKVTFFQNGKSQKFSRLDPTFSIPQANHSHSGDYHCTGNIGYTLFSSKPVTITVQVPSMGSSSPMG

T2: human FcγRIIa(H) (human, UniProt P12318 36-217)
T2 construct: also called FcgRIIaH; hFcgRIIa(H)
T2 sequence: T1 chain with R133H

T3: human FcγRIIb (human, UniProt P31994 43-217, limits assumed)
T3 construct: also called FcgRIIb; hFcgRIIb
T3 sequence: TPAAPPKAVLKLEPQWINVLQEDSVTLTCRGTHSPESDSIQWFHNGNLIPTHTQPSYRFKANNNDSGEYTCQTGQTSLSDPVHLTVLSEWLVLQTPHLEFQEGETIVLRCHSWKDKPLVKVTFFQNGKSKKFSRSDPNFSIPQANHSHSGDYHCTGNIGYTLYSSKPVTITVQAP

B1: GpH7-B3 L328H/GpL16-k0 (antibody, human IgG1)
heavy: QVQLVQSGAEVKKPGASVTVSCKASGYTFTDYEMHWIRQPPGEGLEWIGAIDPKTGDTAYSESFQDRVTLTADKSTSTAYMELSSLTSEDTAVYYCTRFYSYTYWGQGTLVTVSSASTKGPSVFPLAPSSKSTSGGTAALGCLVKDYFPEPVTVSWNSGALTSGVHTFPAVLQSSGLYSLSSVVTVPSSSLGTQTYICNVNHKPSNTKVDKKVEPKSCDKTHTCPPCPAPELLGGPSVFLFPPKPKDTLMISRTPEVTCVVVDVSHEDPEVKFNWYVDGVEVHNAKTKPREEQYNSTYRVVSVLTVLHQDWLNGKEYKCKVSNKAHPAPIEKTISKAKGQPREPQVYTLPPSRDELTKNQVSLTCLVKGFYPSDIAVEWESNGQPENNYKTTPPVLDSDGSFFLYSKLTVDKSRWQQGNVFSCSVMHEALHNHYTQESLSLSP
light: DIVMTQSPLSLPVTPGEPASISCQASESLVHSNRNTYLHWYLQKPGQSPQLLIYKVSNRFSGVPDRFSGSGSGTDFTLKISRVEAEDVGVYYCSQNTHVPPTFGQGTKVEIE
notes: B3 variant; copies: 2 + 2
B2: GpH7-B3 N325F/GpL16-k0 (antibody, human IgG1)
heavy: not shown
light: B1 light
notes: B3 variant; copies: 2 + 2
B3: GpH7-B3 P329E/GpL16-k0 (antibody, human IgG1)
heavy: not shown
light: B1 light
notes: B3 variant; copies: 2 + 2
B4: GpH7-B3 P329D/GpL16-k0 (antibody, human IgG1)
heavy: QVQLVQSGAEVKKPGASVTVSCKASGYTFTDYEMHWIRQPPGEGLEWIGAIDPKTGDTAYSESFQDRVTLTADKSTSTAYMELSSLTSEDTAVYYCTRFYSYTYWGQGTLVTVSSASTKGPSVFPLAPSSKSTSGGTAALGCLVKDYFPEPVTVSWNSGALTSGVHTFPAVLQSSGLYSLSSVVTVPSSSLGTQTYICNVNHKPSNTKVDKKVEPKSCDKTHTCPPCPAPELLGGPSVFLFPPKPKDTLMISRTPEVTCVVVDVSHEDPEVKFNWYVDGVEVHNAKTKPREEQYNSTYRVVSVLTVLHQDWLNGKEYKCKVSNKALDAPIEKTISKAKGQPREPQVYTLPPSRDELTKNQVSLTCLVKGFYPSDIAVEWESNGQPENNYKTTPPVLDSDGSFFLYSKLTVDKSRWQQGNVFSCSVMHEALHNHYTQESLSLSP
light: B1 light
notes: B3 variant; copies: 2 + 2
B5: GpH7-B3 P271T/GpL16-k0 (antibody, human IgG1)
heavy: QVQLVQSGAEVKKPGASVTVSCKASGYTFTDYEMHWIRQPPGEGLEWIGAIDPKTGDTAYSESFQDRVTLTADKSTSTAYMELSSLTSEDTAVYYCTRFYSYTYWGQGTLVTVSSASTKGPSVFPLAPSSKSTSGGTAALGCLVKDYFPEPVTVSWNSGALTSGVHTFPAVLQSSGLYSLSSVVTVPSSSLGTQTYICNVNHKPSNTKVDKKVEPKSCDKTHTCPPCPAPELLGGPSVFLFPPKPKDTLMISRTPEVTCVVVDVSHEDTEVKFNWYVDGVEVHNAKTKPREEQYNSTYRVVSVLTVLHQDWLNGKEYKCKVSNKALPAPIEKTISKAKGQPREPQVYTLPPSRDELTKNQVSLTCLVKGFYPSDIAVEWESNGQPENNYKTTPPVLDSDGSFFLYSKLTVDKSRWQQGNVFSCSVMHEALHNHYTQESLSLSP
light: B1 light
notes: B3 variant; copies: 2 + 2
B6: GpH7-B3 N325T/GpL16-k0 (antibody, human IgG1)
heavy: not shown
light: B1 light
notes: B3 variant; copies: 2 + 2
B7: GpH7-B3 N325P/GpL16-k0 (antibody, human IgG1)
heavy: not shown
light: B1 light
notes: B3 variant; copies: 2 + 2
B8: GpH7-B3 N325W/GpL16-k0 (antibody, human IgG1)
heavy: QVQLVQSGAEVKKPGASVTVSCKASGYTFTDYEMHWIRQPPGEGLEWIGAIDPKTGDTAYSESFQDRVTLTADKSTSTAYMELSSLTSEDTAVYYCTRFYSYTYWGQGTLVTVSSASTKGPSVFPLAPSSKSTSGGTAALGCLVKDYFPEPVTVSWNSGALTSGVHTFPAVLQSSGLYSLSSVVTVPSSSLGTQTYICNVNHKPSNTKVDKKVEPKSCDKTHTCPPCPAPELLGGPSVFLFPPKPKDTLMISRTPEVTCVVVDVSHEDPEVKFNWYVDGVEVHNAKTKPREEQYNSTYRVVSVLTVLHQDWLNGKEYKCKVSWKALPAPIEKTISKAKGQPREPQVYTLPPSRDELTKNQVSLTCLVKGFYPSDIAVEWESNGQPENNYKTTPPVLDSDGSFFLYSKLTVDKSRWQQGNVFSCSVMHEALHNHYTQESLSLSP
light: B1 light
notes: B3 variant; copies: 2 + 2
B9: GpH7-B3 P271F/GpL16-k0 (antibody, human IgG1)
heavy: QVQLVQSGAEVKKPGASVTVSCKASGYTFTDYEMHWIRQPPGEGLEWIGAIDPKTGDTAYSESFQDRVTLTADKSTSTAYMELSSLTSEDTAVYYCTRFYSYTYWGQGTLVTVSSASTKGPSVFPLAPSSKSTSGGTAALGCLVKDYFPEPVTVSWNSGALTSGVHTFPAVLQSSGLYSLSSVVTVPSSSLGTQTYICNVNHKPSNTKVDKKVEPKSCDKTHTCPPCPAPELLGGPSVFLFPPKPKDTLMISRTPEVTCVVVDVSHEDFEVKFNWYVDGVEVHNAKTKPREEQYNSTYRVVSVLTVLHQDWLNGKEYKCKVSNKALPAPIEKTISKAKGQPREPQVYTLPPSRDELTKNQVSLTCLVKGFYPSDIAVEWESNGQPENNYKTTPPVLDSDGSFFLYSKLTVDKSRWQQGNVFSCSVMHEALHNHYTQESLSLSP
light: B1 light
notes: B3 variant; copies: 2 + 2
B10: GpH7-B3 P329F/GpL16-k0 (antibody, human IgG1)
heavy: not shown
light: B1 light
notes: B3 variant; copies: 2 + 2
B11: GpH7-B3 P271H/GpL16-k0 (antibody, human IgG1)
heavy: not shown
light: B1 light
notes: B3 variant; copies: 2 + 2
B12: GpH7-B3 N325A/GpL16-k0 (antibody, human IgG1)
heavy: not shown
light: B1 light
notes: B3 variant; copies: 2 + 2
B13: GpH7-B3 P271Y/GpL16-k0 (antibody, human IgG1)
heavy: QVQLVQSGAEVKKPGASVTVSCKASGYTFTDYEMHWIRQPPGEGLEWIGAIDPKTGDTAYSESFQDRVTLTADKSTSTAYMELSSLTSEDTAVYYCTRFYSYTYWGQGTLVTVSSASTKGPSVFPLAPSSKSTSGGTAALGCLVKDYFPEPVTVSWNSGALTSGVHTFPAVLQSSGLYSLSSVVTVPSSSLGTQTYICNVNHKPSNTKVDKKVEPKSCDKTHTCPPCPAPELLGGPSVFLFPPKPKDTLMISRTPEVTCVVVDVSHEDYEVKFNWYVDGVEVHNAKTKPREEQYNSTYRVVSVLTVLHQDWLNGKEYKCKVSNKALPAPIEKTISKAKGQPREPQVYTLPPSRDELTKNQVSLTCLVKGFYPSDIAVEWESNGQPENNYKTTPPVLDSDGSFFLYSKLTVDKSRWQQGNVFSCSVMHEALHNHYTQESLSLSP
light: B1 light
notes: B3 variant; copies: 2 + 2
B14: GpH7-B3 L328N/GpL16-k0 (antibody, human IgG1)
heavy: not shown
light: B1 light
notes: B3 variant; copies: 2 + 2
B15: GpH7-B3 N325H/GpL16-k0 (antibody, human IgG1)
heavy: not shown
light: B1 light
notes: B3 variant; copies: 2 + 2
B16: GpH7-B3 L328P/GpL16-k0 (antibody, human IgG1)
heavy: not shown
light: B1 light
notes: B3 variant; copies: 2 + 2
B17: GpH7-B3 N325V/GpL16-k0 (antibody, human IgG1)
heavy: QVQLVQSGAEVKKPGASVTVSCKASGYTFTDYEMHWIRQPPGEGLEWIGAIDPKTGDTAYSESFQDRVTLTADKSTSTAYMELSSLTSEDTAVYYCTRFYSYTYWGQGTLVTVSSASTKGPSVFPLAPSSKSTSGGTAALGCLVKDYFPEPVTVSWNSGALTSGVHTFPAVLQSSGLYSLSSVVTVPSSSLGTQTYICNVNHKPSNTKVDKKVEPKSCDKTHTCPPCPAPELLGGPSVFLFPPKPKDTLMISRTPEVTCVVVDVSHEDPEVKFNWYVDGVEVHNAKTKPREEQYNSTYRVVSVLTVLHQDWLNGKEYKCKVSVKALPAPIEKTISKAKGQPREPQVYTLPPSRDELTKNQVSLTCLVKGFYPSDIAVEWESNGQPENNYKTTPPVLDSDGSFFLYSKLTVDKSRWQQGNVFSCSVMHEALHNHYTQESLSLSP
light: B1 light
notes: B3 variant; copies: 2 + 2
B18: GpH7-B3 P271S/GpL16-k0 (antibody, human IgG1)
heavy: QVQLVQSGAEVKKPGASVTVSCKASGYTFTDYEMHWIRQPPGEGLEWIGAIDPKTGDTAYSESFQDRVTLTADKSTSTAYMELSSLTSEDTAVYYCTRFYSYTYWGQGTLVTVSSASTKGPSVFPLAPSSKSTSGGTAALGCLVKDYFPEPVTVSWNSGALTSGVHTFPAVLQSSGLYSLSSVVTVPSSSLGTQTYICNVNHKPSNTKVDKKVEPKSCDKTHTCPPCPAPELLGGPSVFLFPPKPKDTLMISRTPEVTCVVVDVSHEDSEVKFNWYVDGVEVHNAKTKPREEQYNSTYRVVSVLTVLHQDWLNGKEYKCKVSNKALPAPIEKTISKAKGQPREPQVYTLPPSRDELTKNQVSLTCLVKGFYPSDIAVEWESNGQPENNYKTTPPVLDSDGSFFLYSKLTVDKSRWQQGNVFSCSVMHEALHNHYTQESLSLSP
light: B1 light
notes: B3 variant; copies: 2 + 2
B19: GpH7-B3 P329G/GpL16-k0 (antibody, human IgG1)
heavy: not shown
light: B1 light
notes: B3 variant; copies: 2 + 2
B20: GpH7-B3 L328R/GpL16-k0 (antibody, human IgG1)
heavy: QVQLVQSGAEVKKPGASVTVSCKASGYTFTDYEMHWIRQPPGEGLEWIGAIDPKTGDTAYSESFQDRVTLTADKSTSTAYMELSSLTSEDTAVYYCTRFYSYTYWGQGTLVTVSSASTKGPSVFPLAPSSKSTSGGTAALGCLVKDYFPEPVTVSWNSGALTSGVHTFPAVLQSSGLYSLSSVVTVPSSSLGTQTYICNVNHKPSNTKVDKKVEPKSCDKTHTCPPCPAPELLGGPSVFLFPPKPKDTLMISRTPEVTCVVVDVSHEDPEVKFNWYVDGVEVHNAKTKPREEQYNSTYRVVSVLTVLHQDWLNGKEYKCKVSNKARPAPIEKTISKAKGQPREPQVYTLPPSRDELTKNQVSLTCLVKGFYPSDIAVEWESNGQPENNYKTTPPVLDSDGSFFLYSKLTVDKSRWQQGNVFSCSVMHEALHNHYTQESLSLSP
light: B1 light
notes: B3 variant; copies: 2 + 2
B21: GpH7-B3 N325K/GpL16-k0 (antibody, human IgG1)
heavy: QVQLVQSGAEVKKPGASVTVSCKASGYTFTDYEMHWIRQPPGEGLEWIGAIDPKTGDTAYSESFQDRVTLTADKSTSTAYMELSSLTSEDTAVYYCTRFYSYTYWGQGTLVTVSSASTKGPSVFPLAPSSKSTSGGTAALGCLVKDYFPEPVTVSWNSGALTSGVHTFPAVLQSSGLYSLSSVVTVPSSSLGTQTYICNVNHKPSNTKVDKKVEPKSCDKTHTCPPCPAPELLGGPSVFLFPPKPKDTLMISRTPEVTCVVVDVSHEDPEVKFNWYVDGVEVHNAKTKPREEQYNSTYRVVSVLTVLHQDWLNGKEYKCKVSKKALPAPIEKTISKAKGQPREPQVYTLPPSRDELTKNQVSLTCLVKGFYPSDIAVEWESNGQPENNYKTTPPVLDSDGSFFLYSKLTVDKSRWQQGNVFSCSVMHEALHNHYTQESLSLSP
light: B1 light
notes: B3 variant; copies: 2 + 2
B22: GpH7-B3 P271R/GpL16-k0 (antibody, human IgG1)
heavy: not shown
light: B1 light
notes: B3 variant; copies: 2 + 2
B23: GpH7-B3 N325R/GpL16-k0 (antibody, human IgG1)
heavy: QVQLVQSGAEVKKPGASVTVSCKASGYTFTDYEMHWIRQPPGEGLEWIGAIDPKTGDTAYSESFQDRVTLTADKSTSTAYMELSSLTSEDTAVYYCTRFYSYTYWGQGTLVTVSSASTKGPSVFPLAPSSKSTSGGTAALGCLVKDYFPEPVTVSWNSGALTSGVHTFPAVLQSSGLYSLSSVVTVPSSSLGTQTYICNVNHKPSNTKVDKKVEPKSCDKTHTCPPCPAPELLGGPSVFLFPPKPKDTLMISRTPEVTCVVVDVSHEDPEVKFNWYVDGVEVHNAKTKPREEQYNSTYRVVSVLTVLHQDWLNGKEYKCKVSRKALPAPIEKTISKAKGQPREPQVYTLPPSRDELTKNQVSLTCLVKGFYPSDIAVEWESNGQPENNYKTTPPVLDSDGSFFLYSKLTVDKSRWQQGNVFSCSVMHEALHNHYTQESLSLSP
light: B1 light
notes: B3 variant; copies: 2 + 2
B24: GpH7-B3 L328K/GpL16-k0 (antibody, human IgG1)
heavy: not shown
light: B1 light
notes: B3 variant; copies: 2 + 2
B25: GpH7-B3 N325G/GpL16-k0 (antibody, human IgG1)
heavy: not shown
light: B1 light
notes: B3 variant; copies: 2 + 2
B26: GpH7-B3 N325Y/GpL16-k0 (antibody, human IgG1)
heavy: not shown
light: B1 light
notes: B3 variant; copies: 2 + 2
B27: GpH7-B3 P271W/GpL16-k0 (antibody, human IgG1)
heavy: not shown
light: B1 light
notes: B3 variant; copies: 2 + 2

These binders were tested against T4, human FcγRIa (human, UniProt P12314 16-292, limits assumed) (assay: SPR, captured antibody;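 note: antibody captured on a sensor chip, Fcγ receptor flowed over at 25 °C, receptor binding normalized to the captured antibody amount and expressed relative to the reference antibody ×100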).
T4 construct: also called FcgRIa; hFcgRIa
Description: (§1) Interaction between each modified antibody and Fcγ receptor prepared in the manner described above was analyzed using the BIACORE™ T100 surface plasmon resonance system (GE Healthcare), BIACORE™ T200 surface plasmon resonance system (GE Healthcare), BIACORE™ A100 surface plasmon resonance system or BIACORE™ 4000 surface plasmon resonance system. HBS-EP+ (GE Healthcare) was used for the running buffer, and measurements were carried out at 25° C. The chips used were chips in which antigen peptides, Protein A (Thermo Scientific), Protein A/G (Thermo Scientific) or Protein L (ACTIGEN® protein (Alltech or BioVision) were immobilized on the Series S Sensor Chip CMS (GE Healthcare) or Series S Sensor Chip CM4 (GE Healthcare) by amine coupling, or chips in which preliminarily biotinylated antigen peptides were allowed to interact and then immobilized on the Series S Sensor Chip SA (certified) (GE Healthcare). The target antibodies were captured on these sensor chips, Fcγ receptor diluted with the running buffer was allowed to interact, followed by measurement of the amount of bound antibody. The amounts bound were compared between antibodies. However, since the amount of Fcγ receptor bound depends on the amount of captured antibody, the values used for comparison were first corrected by dividing the amount of Fcγ receptor bound by the captured amount of each antibody. Through reaction with 10 mM glycine-HCl at pH 1.5, the sensor chips were regenerated by washing off antibody captured on the sensor chips and used repeatedly.
(§2) Binding strength was evaluated according to the following method based on the results of analyzing the interaction with each FcγR. […] That value was then further multiplied by 100, and the resulting value was used as an indicator of relative binding activity to each FcγR.

Binder | relative binding activity
B1 | 95 % of GpH7-B3/GpL16-k0
B2 | 92 % of GpH7-B3/GpL16-k0
B3 | 33 % of GpH7-B3/GpL16-k0
B4 | 23 % of GpH7-B3/GpL16-k0
B5 | 98 % of GpH7-B3/GpL16-k0
B6 | 98 % of GpH7-B3/GpL16-k0
B7 | 50 % of GpH7-B3/GpL16-k0
B8 | 94 % of GpH7-B3/GpL16-k0
B9 | 99 % of GpH7-B3/GpL16-k0
B10 | 79 % of GpH7-B3/GpL16-k0
B11 | 98 % of GpH7-B3/GpL16-k0
B12 | 94 % of GpH7-B3/GpL16-k0
B13 | 98 % of GpH7-B3/GpL16-k0
B14 | 98 % of GpH7-B3/GpL16-k0
B15 | 93 % of GpH7-B3/GpL16-k0
B16 | 78 % of GpH7-B3/GpL16-k0
B17 | 84 % of GpH7-B3/GpL16-k0
B18 | 99 % of GpH7-B3/GpL16-k0
B19 | 92 % of GpH7-B3/GpL16-k0
B20 | 26 % of GpH7-B3/GpL16-k0
B21 | 55 % of GpH7-B3/GpL16-k0
B22 | 100 % of GpH7-B3/GpL16-k0
B23 | 56 % of GpH7-B3/GpL16-k0
B24 | 30 % of GpH7-B3/GpL16-k0
B25 | 95 % of GpH7-B3/GpL16-k0
B26 | 92 % of GpH7-B3/GpL16-k0
B27 | 100 % of GpH7-B3/GpL16-k0

Molecular target: T1, human FcγRIIa(R)
Assay: SPR, captured antibody;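 note: antibody captured on a sensor chip, Fcγ receptor flowed over at 25 °C, receptor binding normalized to the captured antibody amount and expressed relative to the reference antibody ×100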
Description: as §1, §2

Binder | relative binding activity
B1 | 76 % of GpH7-B3/GpL16-k0
B2 | 65 % of GpH7-B3/GpL16-k0
B3 | -1 % of GpH7-B3/GpL16-k0
B4 | -1 % of GpH7-B3/GpL16-k0
B5 | 73 % of GpH7-B3/GpL16-k0
B6 | 59 % of GpH7-B3/GpL16-k0
B7 | 2 % of GpH7-B3/GpL16-k0
B8 | 55 % of GpH7-B3/GpL16-k0
B9 | 49 % of GpH7-B3/GpL16-k0
B10 | 1 % of GpH7-B3/GpL16-k0
B11 | 58 % of GpH7-B3/GpL16-k0
B12 | 38 % of GpH7-B3/GpL16-k0
B13 | 38 % of GpH7-B3/GpL16-k0
B14 | 25 % of GpH7-B3/GpL16-k0
B15 | 34 % of GpH7-B3/GpL16-k0
B16 | 15 % of GpH7-B3/GpL16-k0
B17 | 37 % of GpH7-B3/GpL16-k0
B18 | 83 % of GpH7-B3/GpL16-k0
B19 | 1 % of GpH7-B3/GpL16-k0
B20 | -13 % of GpH7-B3/GpL16-k0
B21 | 0 % of GpH7-B3/GpL16-k0
B22 | 89 % of GpH7-B3/GpL16-k0
B23 | 0 % of GpH7-B3/GpL16-k0
B24 | -17 % of GpH7-B3/GpL16-k0
B25 | 26 % of GpH7-B3/GpL16-k0
B26 | 42 % of GpH7-B3/GpL16-k0
B27 | 46 % of GpH7-B3/GpL16-k0

Each binder was assayed against T2, human FcγRIIa(H) (assay: SPR, captured antibody;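 note: antibody captured on a sensor chip, Fcγ receptor flowed over at 25 °C, receptor binding normalized to the captured antibody amount and expressed relative to the reference antibody ×100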).
Description: as §1, §2

Binder | relative binding activity
B1 | 47 % of GpH7-B3/GpL16-k0
B2 | 6 % of GpH7-B3/GpL16-k0
B3 | 0 % of GpH7-B3/GpL16-k0
B4 | -1 % of GpH7-B3/GpL16-k0
B5 | 42 % of GpH7-B3/GpL16-k0
B6 | 27 % of GpH7-B3/GpL16-k0
B7 | 1 % of GpH7-B3/GpL16-k0
B8 | 4 % of GpH7-B3/GpL16-k0
B9 | 55 % of GpH7-B3/GpL16-k0
B10 | 1 % of GpH7-B3/GpL16-k0
B11 | 58 % of GpH7-B3/GpL16-k0
B12 | 14 % of GpH7-B3/GpL16-k0
B13 | 48 % of GpH7-B3/GpL16-k0
B14 | 34 % of GpH7-B3/GpL16-k0
B15 | 13 % of GpH7-B3/GpL16-k0
B16 | 8 % of GpH7-B3/GpL16-k0
B17 | 9 % of GpH7-B3/GpL16-k0
B18 | 67 % of GpH7-B3/GpL16-k0
B19 | 1 % of GpH7-B3/GpL16-k0
B20 | -1 % of GpH7-B3/GpL16-k0
B21 | 0 % of GpH7-B3/GpL16-k0
B22 | 99 % of GpH7-B3/GpL16-k0
B23 | 1 % of GpH7-B3/GpL16-k0
B24 | -2 % of GpH7-B3/GpL16-k0
B25 | 7 % of GpH7-B3/GpL16-k0
B26 | 9 % of GpH7-B3/GpL16-k0
B27 | 75 % of GpH7-B3/GpL16-k0

What follows are binders tested against T3, human FcγRIIb (assay: SPR, captured antibody;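 note: antibody captured on a sensor chip, Fcγ receptor flowed over at 25 °C, receptor binding normalized to the captured antibody amount and expressed relative to the reference antibody ×100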).
Description: as §1, §2

Binder | relative binding activity
B1 | 82 % of GpH7-B3/GpL16-k0
B2 | 72 % of GpH7-B3/GpL16-k0
B3 | -2 % of GpH7-B3/GpL16-k0
B4 | -2 % of GpH7-B3/GpL16-k0
B5 | 78 % of GpH7-B3/GpL16-k0
B6 | 49 % of GpH7-B3/GpL16-k0
B7 | 3 % of GpH7-B3/GpL16-k0
B8 | 48 % of GpH7-B3/GpL16-k0
B9 | 38 % of GpH7-B3/GpL16-k0
B10 | 0 % of GpH7-B3/GpL16-k0
B11 | 53 % of GpH7-B3/GpL16-k0
B12 | 27 % of GpH7-B3/GpL16-k0
B13 | 28 % of GpH7-B3/GpL16-k0
B14 | 78 % of GpH7-B3/GpL16-k0
B15 | 27 % of GpH7-B3/GpL16-k0
B16 | 15 % of GpH7-B3/GpL16-k0
B17 | 35 % of GpH7-B3/GpL16-k0
B18 | 82 % of GpH7-B3/GpL16-k0
B19 | 0 % of GpH7-B3/GpL16-k0
B20 | -3 % of GpH7-B3/GpL16-k0
B21 | -1 % of GpH7-B3/GpL16-k0
B22 | 87 % of GpH7-B3/GpL16-k0
B23 | 0 % of GpH7-B3/GpL16-k0
B24 | -4 % of GpH7-B3/GpL16-k0
B25 | 22 % of GpH7-B3/GpL16-k0
B26 | 39 % of GpH7-B3/GpL16-k0
B27 | 33 % of GpH7-B3/GpL16-k0
